Results on 30 sequences are retold here after the nanobody polyreactivity screen of Harvey et al. (2022).

The data set is described as follows: yeast display, Sf9 membrane polyspecificity reagent, FACS + sequencing; frameworks hold sequencing errors. In a few lines: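 A synthetic nanobody library was expressed on Saccharomyces cerevisiae BJ5465 by galactose induction for 36–48 hours. The library was stained for 1 hour at 4 °C with 10% biotinylated, detergent-solubilized Sf9 membrane reagent and enriched with streptavidin microbeads before FACS. Low and high (top ~1%) gates were set on anti-HA fluorescence for expression and streptavidin fluorescence for reagent binding, and each polyreactivity label reflects the gate of origin.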
As for “QVQLVESGGGLVQAGGSLRLSCAASGSIFTNAMGWYRQAPGKERELVAAISSSGGSTYYADSVKGRFTISRDNAKNTVYLQMNSLKPDDTAVYYCAADHYGCRDFWGQGSQVTVSS”, the “polyreactivity (PSR sort gate)” value is on record as “low polyreactivity”.
As for “QVQLVESGGGLVQAGGSLRLSCAASGSIFTNAMGWYRQAPGKETELVAAISYSGGSTYYADSVKGRFTISRDNAKNTVYLQMNSLKREDTAVYYCAAEAWFDGIWGDYWGQGTQVTVSS”, the entry is “high polyreactivity”.
Regarding “QVQLVESGGGLVQAGGSLRLSCAASGSIFTPYAMGRYRQAPGKERELVAAISRSGGRTYYADSVKGRFTISRDNAKNTVYLQMNSLKPEDTAVYYCNAGAGQRVSGHSFEYWGQGTQVTVSS”, the “polyreactivity (PSR sort gate)” value is reported as “high polyreactivity”.
As for “QVQLVESGGGLVQAGGSLRLSCAASGSIFTPYAMGWYRQAPGKESELVAAIRSGTSTNYADSVKGRFTISRDNAKNTVYLQMNSLKPEDTAVYYCAAVYWSRFYVRYDYWGQGTQVTVSS”, the entry is “high polyreactivity”; as for “QVQLVESGGGLVQAGGSLRLSCAASGSIFTPYTMGWYRQAPGKERELVAAITGSAGSTYYADSVKGRFTISRDNAKNTVYLQMNSLKPEDTAVYYCAAAVWGVYQWYYYWGQGTQVTVSS”, “high polyreactivity”.
Regarding “QVQLVESGGGLVQAGGSLRLSCAASGSIFTPYVMGWYRQAPGKEREFVAAITQRGGRTYYADSVKGRFTISRDNAKNTVYLQMNSLKPEDTAVYYCAKTSVSRTYHRSAYDYWGQGTQVTVSS”, the “polyreactivity (PSR sort gate)” value is recorded as “high polyreactivity”.
As for “QVQLVESGGGLVQAGGSLRLSCAASGSIFTRNAMGWYRPAPGKERELVAAIRWNGGRTYYADSVKGRFTISRDNAKNTVYLQMNSLKPEDTAVYYCAADYYQRRYVPEYDYWGQGTQVTVSS”, the entry is “low polyreactivity”; as for “QVQLVESGGGLVQAGGSLRLSCAASGSIFTRYAMGWYRQAPGKERELVAAIRTSGGSTYYADSVKGRFTISRDNAKNTVYLQMNSLKPEDTAVYYCARRYYKSNFYYWGQGTQVTVSS”, “high polyreactivity”; as for “QVQLVESGGGLVQAGGSLRLSCAASGSIFTRYAMGWYRQAPGKERELVAAITASGGRTYYADSVKGRFTISRDNAKNTVYLQMNSLKPEDTAVYYCNTYWRFTSQLPYDYWGQGTQVTVSS”, “high polyreactivity”.
For “QVQLVESGGGLVQAGGSLRLSCAASGSIFTRYTMGWDRQAPRKERELVATNSSRGDGTYYADSVKGRFTISRDNAKNTVYLQMNSLKPEDTAVYYCSARYRRVLSGYGYWGHGTQVTVSS” the value was “high polyreactivity”; for “QVQLVESGGGLVQAGGSLRLSCAASGSIFTRYVMGWYRQAPGKERELVAAISGRGSSTYYADSVKGRFTISRDNAKNTVYLQMNSLKPEDTAVYYCAAEIVVFYSEGQRNTFYYWGQGTQVTVSS”, “high polyreactivity”; for “QVQLVESGGGLVQAGGSLRLSCAASGSIFTSNVMAWYRQAPGKERELVAAITITGTTTYADSVKGRFTISRDNAKNTVYLQMNSLIPEDTAVYYCAKDPVELSPADWRADYDYWGQGTQVTVSS”, “low polyreactivity”.
As for “QVQLVESGGGLVQAGGSLRLSCAASGSIFTTYAMGWYIQAPGKERELVAVISRRGGSTYYADSVKGRFTISRDNAKNTDYLQMNSLKPEDTAVYFCNAAYVWYRIFVRRDYWGQGTQVTVSS”, the entry is “high polyreactivity”; as for “QVQLVESGGGLVQAGGSLRLSCAASGSIFTTYAMGWYREAPGKERELVAAITDTSSTNYADSVKGRFTISRDNAKKTVFLQMNSLKPEDTAVYYCAVDLGYEYDWGQGTQVTVSS”, “low polyreactivity”; as for “QVQLVESGGGLVQAGGSLRLSCAASGSIFTTYAMGWYRQAPGKERELVAAISSGGGTNYADSVKGRFTISRDNAKNTVYLQMNSLKPEDTAVYYCNKRYYRLQLHNAYGATPRRNYWGQGTQVTVSS”, “low polyreactivity”.
On to “QVQLVESGGGLVQAGGSLRLSCAASGSIFTVNAMGWYRQAPGKERELVAAISSGGSTHYADSVKGRFTISRDNAKNTVYLQMNSLKPEDTAVYYCAAEVSYYLNEFDYWGQGTQVTVSS”, for which the “polyreactivity (PSR sort gate)” value is listed as “low polyreactivity”.
As for “QVQLVESGGGLVQAGGSLRLSCAASGSIFTVYAMGWYRQAPGKERELVASISKSGGSTYYADSVKGRFTISRDNAKNTVYLQMNSLKPEDTAVYYCAAESGRTYSHRHYDSWGQGTQVTVSS”, the entry is “low polyreactivity”; as for “QVQLVESGGGLVQAGGSLRLSCAASGSIFTVYGMGWYRQAPGKERELVAAISRSGGSTYYADSVKGRFTISRDNAKNTVYLLMNSLKPEDTAVYYCAADVYRTWFWWFDYWGQGTQVTVSS”, “high polyreactivity”.
As for “QVQLVESGGGLVQAGGSLRLSCAASGSIFTWNAMGWYSQAPGKERELVAAISWIGDSTYYADSVKGRFTISRDNAKNTVYLQMNSLKPEDTAVYYCAAEYAQGSRELESWGQGTQVTVSS”, the entry is “low polyreactivity”; as for “QVQLVESGGGLVQAGGSLRLSCAASGSIFTWYAMGWYRQAPGKERELVAAITTSGGSTYYADSVKGRFTISRDNAKNTVYLQMNSLKPEDTAVYYCAKDGDYLFYYYGYDYWGQGTQVTVSS”, “low polyreactivity”.
For “QVQLVESGGGLVQAGGSLRLSCAASGSIFTYAMGWYRQAPGKERELVAAITYSGGRTDYADSVKGRFTISRDNAKNTVYLQMNSLKPEDTAVYYCAVRARPYPYYGALMYYWGQGTQVTVSS” the value was “low polyreactivity”; for “QVQLVESGGGLVQAGGSLRLSCAASGSIFTYNAMGWYRQAPGKERELVATISYSGGSTDYADSVKGRFTISRDNAKNTVYLQMNSLKPEDTAVYYCNKEYGYPPIWQDYGYDSWGQGTQVTVSS”, “high polyreactivity”.
For “QVQLVESGGGLVQAGGSLRLSCAASGSIFTYNVMGWYRQAPGKERELVASISWSGGRTYYADSVKGRFTISRDYAKNTVYLQMNSLKPEDTAVYYCNNVRPPVYFPNRDYWGQGTQVNVSS”, the “polyreactivity (PSR sort gate)” value is listed as “low polyreactivity”.
As for “QVQLVESGGGLVQAGGSLRLSCAASGSIFTYYAMGWYRQAPGKERELVAAISGSGGRTYYADSVKGRFTISRDNAKNPVYLQMNSLKPEDTAVYYCAVRSYRRFTHLYYRYDYWGQGTQVTVSS”, the entry is “high polyreactivity”; as for “QVQLVESGGGLVQAGGSLRLSCAASGSIFTYYAMGWYRQAPGKERELVAAISSDGSTTYADSVKGRFTISRDNAKNTVYLQMNSLKPEDTAVLLLQRSGLRRSGVWFDYWGQGTQVTVSS”, “low polyreactivity”; as for “QVQLVESGGGLVQAGGSLRLSCAASGSIFTYYVRGWYRQAPVKERELVAGISRRGSTYYADSVKGRFTISRDNAKNTVYLQMNSLKQEDTAVYYCAAEPWVGTLYPRVGYWGQGTQVTVSS”, “low polyreactivity”.
For “QVQLVESGGGLVQAGGSLRLSCAASGSIFVANAMGWYRPAPGKERELVAAISSGGSTYYADSVKGRFTISRDNAKNTVYLQMNSLKPEDTAVYDCAAGQPNLVVGHYYWGQGTQVTVSS” the value was “low polyreactivity”.
Regarding “QVQLVESGGGLVQAGGSLRLSCAASGSIFVDNAMGWYRQATGKERELVAAISASGVTTYYADSVKGRFTISRDNAKNTVYLQMNSLKPEDTAVYYCNADYGSDDDVVRYDYWGQGTQVTVSS”, the “polyreactivity (PSR sort gate)” value is listed as “low polyreactivity”.
As for “QVQLVESGGGLVQAGGSLRLSCAASGSIFVEYAMGWYRQAPGKERELVAGISSGGITSYADSVKGRFTISRDNAKNTVYLQMNSLKPEDTAGYYCATDPYKWFYSSYYLLQEVEYWGQGTQVTVSS”, the entry is “low polyreactivity”; as for “QVQLVESGGGLVQAGGSLRLSCAASGSIFVFNTMGWYRQAPGKERELVAAISDRGTRTYYADSVKGRFTISRDNAKNTVYLQMNSLKPEDTAVYYCATRVYFSPYRYDYWGQGTQVTVSS”, “high polyreactivity”.
